Test results reported in patent US20210206865A1 (Regeneron, published 2021).

T1: human BCMA on the surface of cell lines (NCI-H929, MM.1S, OPM-2, RPMI-8226, Daudi, Raji, MOLP-8, U266) (human, UniProt Q02223 1-184)
T1 construct: Endogenous BCMA of human myeloma and lymphoma cell lines; also called TNFRSF17; CD269
T1 sequence: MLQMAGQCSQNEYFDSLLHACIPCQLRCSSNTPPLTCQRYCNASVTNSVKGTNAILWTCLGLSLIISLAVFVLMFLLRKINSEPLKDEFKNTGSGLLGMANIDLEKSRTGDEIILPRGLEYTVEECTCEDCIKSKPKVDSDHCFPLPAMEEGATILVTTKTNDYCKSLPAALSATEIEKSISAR


Columns and labels:
[1] = target: T2, cynomolgus CD3 on cells (mfCD3 engineered Jurkat cells, primary cynomolgus CD8+ T cells) (cynomolgus, UniProt Q95LI5 22-198; Q95LI8 22-171); assay: flow cytometry, mfCD3 engineered Jurkat cells, median EC50, n=2
T2 construct: whole, on cells; The engineered Jurkat line expresses cynomolgus CD3 epsilon and delta in place of the human versions (other chains remain human); primary cynomolgus T cells carry the whole cynomolgus complex; also called Jurkat-mfCD3; Mf (Cyno) CD3
Experimental: Flow cytometric analysis was utilized to determine binding of BCMA×CD3 bispecific antibodies to human and cynomolgus CD3 (Jurkat cells, mfCD3 engineered Jurkat cells, primary human CD8+ and cynomolgus CD8+ T cells). Briefly, 1e05 cells/well were incubated in the presence of FACS wash with block (PBS+1% filtered FBS+5% mouse serum) with a serial dilution of BCMA×CD3 and control antibodies for 30 minutes on ice. After incubation, the cells were washed twice with cold FACS wash (PBS+1% filtered FBS) and bound antibody was detected by incubating with Alexa647-conjugated anti-human secondary antibody on ice for an additional 30 minutes. Wells containing no antibody or secondary only were used as a control. For the detection of monkey and human T cells, a cocktail of human and cynomolgus cross-reactive antibodies to CD4, CD8 and CD16 was added to the anti-human secondary. After incubation, cells were washed, re-suspended in 200 μL cold PBS containing 1% filtered FBS and analyzed by flow cytometry on a BD FACS Canto II. Cells were gated by FSC-H by FSC-A to select singlet events, followed by side and forward scatters to select for live events. For monkey T cells, additional gating on CD8+/CD16-cells was performed.
EC50 values for FACS binding were calculated using 4-parameter non-linear regression analysis in Prism software.

[2] = target: T1, human BCMA on the surface of cell lines …; assay: flow cytometry, Alexa647 conjugate on Raji cells
Experimental: (§1) Cells were then washed and fixed for 25 mins at 4° C. using a 50% solution of BD Cytofix (BD, Cat #554655) diluted in PBS. […] After gating for live cells and single cells, the mean fluorescent intensity (MFI) was determined, and MFI values were plotted in Graphpad Prism using a four-parameter logistic equation over a 10-point response curve to calculate EC₅₀s. The zero condition for each dose-response curve is also included in the analysis as a continuation of the two-fold serial dilution and is represented as the lowest dose.

[3] = target: T1, human BCMA on the surface of cell lines …; assay: flow cytometry, Alexa647 conjugate on Daudi cells
Experimental: as §1

[4] = target: T1, human BCMA on the surface of cell lines …; assay: flow cytometry, Alexa647 conjugate on RPMI-8226 cells
Experimental: as §1

T2 sequence (Q95LI5 22-198, stated change not applied, chain 1 of 2): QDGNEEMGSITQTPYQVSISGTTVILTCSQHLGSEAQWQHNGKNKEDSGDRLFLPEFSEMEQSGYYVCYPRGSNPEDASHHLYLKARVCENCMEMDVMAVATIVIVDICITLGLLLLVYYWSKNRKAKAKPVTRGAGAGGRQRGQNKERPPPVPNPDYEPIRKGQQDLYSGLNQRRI
T2 sequence (Q95LI8 22-171, stated change not applied, chain 2 of 2): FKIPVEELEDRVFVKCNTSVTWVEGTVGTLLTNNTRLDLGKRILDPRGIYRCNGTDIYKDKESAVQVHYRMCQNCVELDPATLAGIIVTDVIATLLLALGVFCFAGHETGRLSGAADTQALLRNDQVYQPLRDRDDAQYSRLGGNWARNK

| Binder | EC50 [1] [nM] | S/N (ratio of mAb25442D-A647 MFI to Isotype-A647 MFI) [2] | S/N (ratio of mAb25442D-A647 MFI to Isotype-A647 MFI) [3] | EC50 [4] [nM] | S/N (ratio of mAb25442D-A647 MFI to Isotype-A647 MFI) [4] |
| --- | --- | --- | --- | --- | --- |
| bsAb25441D bispecific antibody (REGN5458), anti-BCMA x anti-CD3 (bispecific antibody, human IgG4 S228P, kappa, Anti-BCMA arm from mAb21581, anti-CD3 arm and common light chain from mAb7221G; also called bsAb25441D9; mAb25441D) heavy 1: EVQLVESGGGLVQPGGSLRLSCAASGFTFSNFWMTWVRQAPGKGLEWVANMNQDGSEKYYVDSVKGRFTISRDNAKSSLYLQMNSLRAEDTAVYYCARDREYCISTSCYDDFDYWGQGTLVTVSSASTKGPSVFPLAPCSRSTSESTAALGCLVKDYFPEPVTVSWNSGALTSGVHTFPAVLQSSGLYSLSSVVTVPSSSLGTKTYTCNVDHKPSNTKVDKRVESKYGPPCPPCPAPPVAGPSVFLFPPKPKDTLMISRTPEVTCVVVDVSQEDPEVQFNWYVDGVEVHNAKTKPREEQFNSTYRVVSVLTVLHQDWLNGKEYKCKVSNKGLPSSIEKTISKAKGQPREPQVYTLPPSQEEMTKNQVSLTCLVKGFYPSDIAVEWESNGQPENNYKTTPPVLDSDGSFFLYSRLTVDKSRWQEGNVFSCSVMHEALHNHYTQKSLSLSLGK heavy 2: EVQLVESGGGLVQPGRSLRLSCAASGFTFDDYSMHWVRQAPGKGLEWVSGISWNSGSKGYADSVKGRFTISRDNAKNSLYLQMNSLRAEDTALYYCAKYGSGYGKFYHYGLDVWGQGTTVTVSSASTKGPSVFPLAPCSRSTSESTAALGCLVKDYFPEPVTVSWNSGALTSGVHTFPAVLQSSGLYSLSSVVTVPSSSLGTKTYTCNVDHKPSNTKVDKRVESKYGPPCPPCPAPPVAGPSVFLFPPKPKDTLMISRTPEVTCVVVDVSQEDPEVQFNWYVDGVEVHNAKTKPREEQFNSTYRVVSVLTVLHQDWLNGKEYKCKVSNKGLPSSIEKTISKAKGQPREPQVYTLPPSQEEMTKNQVSLTCLVKGFYPSDIAVEWESNGQPENNYKTTPPVLDSDGSFFLYSRLTVDKSRWQEGNVFSCSVMHEALHNRFTQKSLSLSPGK light: not shown | 15.1 | – | – | – | – |
| bsAb25442D bispecific antibody (REGN5459), anti-BCMA x anti-CD3 (bispecific antibody, human IgG4 S228P, kappa, Anti-BCMA arm from mAb21581, anti-CD3 arm and common light chain from mAb7221G20; also called mAb25442D; mAb25442D-A647) heavy 1: EVQLVESGGGLVQPGGSLRLSCAASGFTFSNFWMTWVRQAPGKGLEWVANMNQDGSEKYYVDSVKGRFTISRDNAKSSLYLQMNSLRAEDTAVYYCARDREYCISTSCYDDFDYWGQGTLVTVSSASTKGPSVFPLAPCSRSTSESTAALGCLVKDYFPEPVTVSWNSGALTSGVHTFPAVLQSSGLYSLSSVVTVPSSSLGTKTYTCNVDHKPSNTKVDKRVESKYGPPCPPCPAPPVAGPSVFLFPPKPKDTLMISRTPEVTCVVVDVSQEDPEVQFNWYVDGVEVHNAKTKPREEQFNSTYRVVSVLTVLHQDWLNGKEYKCKVSNKGLPSSIEKTISKAKGQPREPQVYTLPPSQEEMTKNQVSLTCLVKGFYPSDIAVEWESNGQPENNYKTTPPVLDSDGSFFLYSRLTVDKSRWQEGNVFSCSVMHEALHNHYTQKSLSLSLGK heavy 2: EVQLVESGGGLVQPGRSLRLSCAASGFTFDDYSMHWVRQAPGKGLEWVSGISWNSGSIGYADSVKGRFTISRDNAKNSLYLQMNSLRAEDTALYYCAKYGSGYGKFYYYGMDVWGQGTTVTVSSASTKGPSVFPLAPCSRSTSESTAALGCLVKDYFPEPVTVSWNSGALTSGVHTFPAVLQSSGLYSLSSVVTVPSSSLGTKTYTCNVDHKPSNTKVDKRVESKYGPPCPPCPAPPVAGPSVFLFPPKPKDTLMISRTPEVTCVVVDVSQEDPEVQFNWYVDGVEVHNAKTKPREEQFNSTYRVVSVLTVLHQDWLNGKEYKCKVSNKGLPSSIEKTISKAKGQPREPQVYTLPPSQEEMTKNQVSLTCLVKGFYPSDIAVEWESNGQPENNYKTTPPVLDSDGSFFLYSRLTVDKSRWQEGNVFSCSVMHEALHNRFTQKSLSLSPGK light: not shown | – | 2 | 3 | 27 | 9 |
